From patent US7271245B2, “Methods and compositions for inhibition of metastasis” (The Scripps Research Institute, priority 2004, dated 2007)

Test system: activated integrin αvβ3
Experiment: Flow cytometry, scFv binding to MDA-MB 435 variants and patient metastatic breast cancer cells
Parameters: species or system human
Protocol: FIGS. 1A, 1B, 1C. Patient derived scFvs Bc-12 and Bc-15 recognize tumor cell integrin αvβ3 in a cation and activation dependent manner. Flow cytometric analyses in TBS with or without 1 mM Ca^2+, 1 mM Mg^2+, or 0.2 mM Mn^2+ as indicated. Binding of soluble scFv detected after incubation with anti-Flag M2 murine mAb followed by FITC-anti mouse F(ab′)2. (A) scFv binding to human melanoma cells (M21: αvβ3 plus other αv integrins) (M21-LIIb: αIIbβ3, no αv integrins) or lung adenocarcinoma cells (UCLA-P3: αv integrins, no β3 integrin). (B) scFv binding to M21 melanoma cells. (C) scFv binding to variants of MDA-MB 435 human breast cancer cells that lack (β^3−) or express αvβ3 either in a non-activated (β3WT, ParentCo) or activated form (β3D723R, Bone, Lung, and BMS metastatic cancer cells isolated from breast cancer patient blood).
FIGS. 2A, 2B, 2C, 2D. Translation of scFv DNA sequence analyses. (A) Consensus amino acid sequence (SEQ ID NO: 9) of Bc-12 (SEQ ID NO: 7) and Bc-15 (SEQ ID NO: 8) (specific for activated αvβ3) compared to Bc-20 (specific for αv) (SEQ ID NO: 10). (B) scFv binding to BMS human breast cancer cells by flow cytometry, indicating loss of Bc-12 and Bc-15 binding when CDR-H3 RGD is mutated to RGE (Mut-12 and Mut-15). […] (C) cDNA sequences for scFv Bc-12 (SEQ ID NO: 1) and scFv Bc-15 (SEQ ID NO: 3). The cDNA encoding scFv Bc-12 has an ATCC accession number PTA-6303, date of deposit: Nov. 12, 2004. The cDNA encoding scFv Bc-15 has an ATCC accession number PTA-6304, date of deposit: Nov. 12, 2004. (D) cDNA sequences for scFv Mut-12 (SEQ ID NO: 5) and scFv Mut-15 (SEQ ID NO: 6). scFv Mut-12 is the RGE containing mutant version of scFv Bc-12. scFv Mut-15 is the RGE containing mutant version of scFv Bc-15.
Flow cytometry. scFv binding to human tumor cells was analyzed by flow cytometry, initially with cloned scFv phage and then with purified scFv protein. Per sample, 2×10^5 tumor cells were blocked with goat serum and incubated either with scFv phage (2-5×10^10) (1 h at RT) followed by mouse anti-M13 mAb (Serotec) (30 min on ice) and goat FITC-anti mouse (Pierce) (30 min on ice), or with purified scFv (1.25 to 40 μg/ml, routinely 10 to 15 μg/ml) (45 min on ice), followed by mouse anti-FLAG mAb M2 (Sigma) (30 min on ice) and goat FITC-anti mouse. Binding/washing buffer was TBS with or without divalent cations (1 mM Ca^2+, 1 mM Mg^2+, 0.2 mM Mn^2+). Alternatively, tumor cells were washed in 10 ml of plasma (prepared freshly from human blood anticoagulated with 50 nM D-Phe-D-Pro-D-arginyl chloromethyl ketone, PPACK, Felding-Habermann et al., J. Biol. Chem. 271: 5892-5900, 1996), resuspended in plasma and then incubated sequentially, without washing, with purified scFv (45 min on ice), followed by anti-FLAG M2 (30 min on ice) and FITC-anti mouse (30 min on ice). All samples were counter stained with propidium iodide (PI) and analyzed on a Becton-Dickinson FACScan, with live gate set to exclude PI positive cells.
To test this further, the effects of cation combinations on Bc-12 and Bc-15 binding were examined. […] Smith, Methods Cell Biol. 69: 247-259, 2002; Hughes et al., J. Biol. Chem. 271: 6571-6574, 1996. To confirm that scFv Bc-12 and Bc-15 selectively recognize αvβ3 in its activated form, binding of these antibodies to in vitro generated and in vivo selected variants of the MDA-MB 435 breast cancer cell model was tested. […] In contrast, Bc-12 and Bc-15 were able to bind an MDA-MB 435 variant expressing constitutively activated mutant αvβ3D723R, without exogenous stimulation with Mn^2+. […] Importantly, scFvs Bc-12 and Bc-15 recognized in vivo selected MDA-MB 435 variants from bone and lung metastases, as well as metastatic cells isolated from breast cancer patient blood samples (FIG. 1C). These cells express αvβ3 in a constitutively activated form. Felding-Habermann et al., Proc. Natl. Acad. Sci. U.S.A 98: 1853-1858, 2001; Rolli et al., Proc. Natl. Acad. Sci. U.S.A 100: 9482-9487, 2003.

B1: Bc-12: patient derived human scFv antibody against activated αvβ3 with RGD motif in CDR-H3; cDNA ATCC PTA-6303 (protein)
scFv: MAQVQLVQSGAEVKKPGASVKVSCKASGYTFSNYGITWVRQAPGQGLEWMGWINNGNTHYAQKFQGRVTMTTDTSTSTAYMELRSLRSDDTAVYYCARDPRGDDEPYWGQGTLVTVSSGGGGSGGGGSGGGGSEIVLTQSPLSLPVTLGQPASISCRSSQNLVYSDGNTYLSWFQQRPGQSPRRLIYKVSNRDSGVPDRFSGSGSGTDFTLKISRVEAEDIGVYYCMQGTHWPPRTFGQGTKVEIKRGLGGLVDYKDDDDK
binding to MDA-MB 435 variant expressing αvβ3D723R with Mn2+ (Mn^2+ added): further enhanced | binding to MDA-MB 435 variant expressing αvβ3D723R (constitutively activated mutant, without Mn^2+): able to bind | binding to β3-negative MDA-MB 435 cells (β3− variant): failed to bind
